The values below come from paper PMC13233326, “Myosin forces remodel F-actin for mechanosensitive protein recognition” (Nature, 2026).

The series deals with the molecule itself. Put plainly: cryo-EM structure; dual motor condition: GFP-tagged myosin V and myosin VI anchored to a holey carbon grid by an anti-GFP antibody, F-actin applied, then MB-ATP (20 mM MOPS pH 7.4, 5 mM MgCl2, 0.1 mM EGTA, 1 mM DTT, 1 mM ATP, 0.01% NP-40) with α-catenin ABD for 30 s before plunge freezing; 0.6 µM F-actin and 1 µM α-catenin ABD (sub-saturating); consensus map 10.4 Å, 3DVA-sorted map 12.3 Å.

B1: C-terminal actin-binding domain (ABD) of human α-catenin (amino acids 664–906) (domain or fragment, UniProt P35221 664-906, looked up)
chain: IAGQSARAIMAQLPQEQKAKIAEQVASFQEEKSKLDAEVSKWDDSGNDIIVLAKQMCMIMMEMTDFTRGKGPLKNTSDVISAAKKIAEAGSRMDKLGRTIADHCPDSACKQDLLAYLQRIALYCHQLNICSKVKAEVQNLGGELVVSGVDSAMSLIQAAKNLMNAVVQTVKASYVASTKYQKSQGMASLNLPAVSWKMKAPEKKPLVKREKQDETQTKIKRASQKKHVNPVQALSEFKAMDSI
notes: the tags were removed with TEV protease; also called α-catenin ABD; αE-catenin ABD; source: E. coli Rosetta2(DE3), purified (Ni-NTA, TEV cleavage, anion exchange, SEC); not shown: His6, N-terminal, cleaved; strep tag, N-terminal, cleaved
Take B1: the binding result is on record as “binds”.
